In patent publication US11306156:

Each substance was assayed against tissue factor (TF) antigen (UniProt P13726) (assay: SPR, Fab captured on anti-penta His, TF injected).
Chain of tissue factor (TF) antigen (P13726 33-251 limits assumed): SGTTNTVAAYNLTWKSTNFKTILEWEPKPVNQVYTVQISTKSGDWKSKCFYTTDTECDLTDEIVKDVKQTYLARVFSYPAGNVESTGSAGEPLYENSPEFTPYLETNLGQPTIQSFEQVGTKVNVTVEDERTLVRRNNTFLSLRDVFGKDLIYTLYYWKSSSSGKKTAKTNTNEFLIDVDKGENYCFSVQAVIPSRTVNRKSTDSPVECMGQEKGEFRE

Substance	Change in KD with respect to wild type (-(log(KD design) - log(KD wt)))	Kd
D3H44 Fab heterodimer H L124E_H172T / L V133G_N137K_S174R_S176R (H1L1 Fab of LCCA Set # 9121)	0.08	0.13 nM
D3H44 Fab heterodimer H L124E_L143D_K145M / L Q124K_V133G_Q160K_S176R (H1L1 Fab of LCCA Set # 9170)	-0.24	0.27 nM
D3H44 Fab heterodimer H L124E_L143D_K145M / L Q124K_V133G_S176R_T178K (H1L1 Fab of LCCA Set # 9178, 9179)	-0.15	0.22 nM
D3H44 Fab heterodimer H L124E_L143D_K145T / L Q124K_V133G_S176R_T178K (H1L1 Fab of LCCA Set # 9220, 9216)	-0.08	0.19 nM
D3H44 Fab heterodimer H L124E_L143D_K145T / L Q124K_V133G_S176R_T178R (H1L1 Fab of LCCA Set # 9229, 9225, 9228)	-0.02	0.16 nM
D3H44 Fab heterodimer H L124E_L143E_K145M / L Q124K_V133G_Q160K_S176R (H1L1 Fab of LCCA Set # 9247)	-0.26	0.28 nM
D3H44 Fab heterodimer H L124E_L143E_K145M / L Q124K_V133G_S176R_T178R (H1L1 Fab of LCCA Set # 9270)	-0.29	0.31 nM
D3H44 Fab heterodimer H L124E_L143E_K145T / L Q124K_V133G_Q160K_S176R (H1L1 Fab of LCCA Set # 9275)	-0.12	0.2 nM
D3H44 Fab heterodimer H L124R_D146N_Q179K / L Q124E_V133G_S176D_T178E_T180E (H1L1 Fab of LCCA Set # 9350, 9351)	-0.1	0.2 nM
D3H44 Fab heterodimer H L124R_D146N_Q179K / L V133G_S176D_T178E_T180E (H1L1 Fab of LCCA Set # 9359)	-0.01	0.16 nM
D3H44 Fab heterodimer H L124R_Q179K / L Q124E_V133G_S176D_T178E_T180E (H1L1 Fab of LCCA Set # 9384, 9388)	-0.15	0.22 nM
D3H44 Fab heterodimer H L124R_Q179K / L V133G_S176D_T178E_T180E (H1L1 Fab of LCCA Set # 9426)	-0.16	0.23 nM

What follows are substances tested against tissue factor (TF) antigen (UniProt P13726) (assay: SPR, Fab captured on anti-penta His surface, TF as analyte, 1:1 fit).

Substance	Change in KD with respect to wild type (-(log(KD design) - log(KD wt)))	Kd
D3H44 Fab heterodimer, H1L1 of LCCA Sets # 9090, 9091 and 9092 (H1 L124A_L143F_Q179K; L1 Q124E_V133W_S176T_T178E_T180E)	-0.02	0.16 nM
D3H44 Fab heterodimer, H1L1 of LCCA Sets # 9094, 9095 and 9096 (H1 L124A_L143F_Q179K; L1 Q124E_V133W_S176T_T178L_T180E)	-0.04	0.17 nM
D3H44 Fab heterodimer, H1L1 of LCCA Sets # 9558 and 9559 (H1 L124W_L143E_K145T_Q179E; L1 Q124K_V133A_S176T_T178R)	-0.24	0.27 nM
D3H44 Fab heterodimer, H1L1 of LCCA Sets # 9560 and 9561 (H1 L124W_L143E_K145T_Q179E; L1 Q124R_V133A_S176T_T178R)	-0.13	0.21 nM
D3H44 Fab heterodimer, H1L1 of LCCA Sets # 9752 and 10552 (H1 L45P_L143E_K145T_H172R; L1 P44F_Q124R_Q160K_T178R)	-0.27	0.29 nM
